Experimental data published in paper PMC6905151.
Where two headings read alike, the source gives them in different places.

What was measured:
[1] = target: IgM-Fc (Fcμ2-4) mutant M1 (K361D/D416R) (human); assay: SEC-MALS; SEC-MALLS on Superdex 200 Increase 5/150 with in-line miniDAWN detector and refractometer; peaks of the homodimeric Fcμ2-4 proteins from SEC
[2] = target: IgM-Fc (Fcμ2-4) mutant M2 (Q510R) (human); assay: as above
[3] = target: IgM-Fc (Fcμ2-4) mutant M3 (D340S/Q341G/D342S/T343S) (human); assay: as above
[4] = target: IgM-Fc (Fcμ2-4) wild-type, dimer of Cμ2-Cμ3-Cμ4 domains (human); assay: SPR; Biacore T200, 25 °C, 0.01 M HEPES, 0.15 M NaCl, 0.005% Surfactant P20, pH 7.4; IgM, IgM-Fc, Fcμ3-4 or IgM-Fc mutants immobilised on CM5 by amine coupling; analyte sIgFcμR 0.25 μM to 12 μM; steady state, 1:1 binding model
[5] = target: IgM-Fc (Fcμ2-4) mutant M3 (D340S/Q341G/D342S/T343S) (human); assay: as above
[6] = target: IgM-Fc (Fcμ2-4) wild-type, dimer of Cμ2-Cμ3-Cμ4 domains (human); assay: as above; remark: listed apart in the source
[7] = target: Fcμ3-4, dimer of Cμ3-Cμ4 domains (human); assay: as above
Sequence of Fcμ3-4, dimer of Cμ3-Cμ4 domains (human) (P01871 other isoform, or with tags, fused parts or gaps): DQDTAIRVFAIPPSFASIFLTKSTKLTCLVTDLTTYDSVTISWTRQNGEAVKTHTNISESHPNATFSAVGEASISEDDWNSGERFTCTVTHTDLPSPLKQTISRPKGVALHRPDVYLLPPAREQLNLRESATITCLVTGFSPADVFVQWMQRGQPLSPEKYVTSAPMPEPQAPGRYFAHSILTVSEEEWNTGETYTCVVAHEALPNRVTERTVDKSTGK

[8] = target: purified serum IgM (whole pentameric IgM) (human); assay: as above
IgM (Homo sapiens) = IgM (Homo sapiens) (UniProt P01871); conditions: cited from earlier work
Sequence of IgM (Homo sapiens) (P01871 whole entry): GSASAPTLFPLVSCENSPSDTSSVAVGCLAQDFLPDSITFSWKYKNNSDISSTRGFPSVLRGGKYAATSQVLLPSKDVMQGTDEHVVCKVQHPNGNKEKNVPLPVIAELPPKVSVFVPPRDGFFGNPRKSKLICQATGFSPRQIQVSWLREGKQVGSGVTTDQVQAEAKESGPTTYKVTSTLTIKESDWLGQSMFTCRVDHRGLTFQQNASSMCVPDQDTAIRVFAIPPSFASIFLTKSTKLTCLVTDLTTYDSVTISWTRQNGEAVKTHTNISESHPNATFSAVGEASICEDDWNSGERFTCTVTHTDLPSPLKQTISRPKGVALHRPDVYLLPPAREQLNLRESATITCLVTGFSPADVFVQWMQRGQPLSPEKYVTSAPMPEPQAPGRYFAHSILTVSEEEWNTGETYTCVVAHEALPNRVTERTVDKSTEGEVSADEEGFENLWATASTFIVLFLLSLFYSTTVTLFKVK

[9] = target: IgM-Fc (Fcμ2-4) wild-type, dimer of Cμ2-Cμ3-Cμ4 domains (human); assay: SEC-MALS; SEC-MALLS on Superdex 200 Increase 5/150 with in-line miniDAWN detector and refractometer; peaks of the homodimeric Fcμ2-4 proteins from SEC

Sequence of FcμR (cell surface) (O60667 17-390): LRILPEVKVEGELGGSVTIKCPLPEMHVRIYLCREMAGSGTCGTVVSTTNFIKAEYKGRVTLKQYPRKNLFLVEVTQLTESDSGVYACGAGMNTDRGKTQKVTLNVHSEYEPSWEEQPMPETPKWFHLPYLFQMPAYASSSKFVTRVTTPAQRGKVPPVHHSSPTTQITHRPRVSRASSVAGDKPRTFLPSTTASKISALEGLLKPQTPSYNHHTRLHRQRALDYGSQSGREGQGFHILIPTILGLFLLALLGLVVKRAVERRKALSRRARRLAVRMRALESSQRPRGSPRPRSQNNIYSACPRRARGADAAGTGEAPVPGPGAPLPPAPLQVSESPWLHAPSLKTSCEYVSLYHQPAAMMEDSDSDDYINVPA

For “IgM-Fc (Fcμ2-4) mutant M1 (K361D/D416R) (domain or fragment)”, the stoichiometry N [1] was 2.

With “IgM-Fc (Fcμ2-4) mutant M2 (Q510R) (domain or fragment)” the stoichiometry N [2] was 2.

“IgM-Fc (Fcμ2-4) mutant M3 (D340S/Q341G/D342S/T343S) (domain or fragment)” gave a stoichiometry N [3] of 2.

“soluble extracellular immunoglobulin-like domain of FcμR (domain or fragment)” gave a Kd [4] of 1.83 µM, a Kd [5] of 1.45 µM and a Kd [6] of 1.15 µM. It also gave a stoichiometry N (sIgFcμR per IgM-Fc homodimer) [6] of 2, a stoichiometry N (sIgFcμR per IgM-Fc homodimer) [7] of 2 and a Kd [8] of 2.49 µM. It also gave a stoichiometry N (sIgFcμR per IgM-Fc homodimer) [8] of 2.

For “FcμR (cell surface) (from UniProt O60667)”, the Kd (IgM (Homo sapiens)) is given as 0.01 µM.

With “IgM-Fc (Fcμ2-4) wild-type, dimer of Cμ2-Cμ3-Cμ4 domains (domain or fragment)” the stoichiometry N [9] was 2.
